According to patent publication US7183387 (Genentech, dated 2007):

T1: human FcγRIIB α subunit extracellular domain-His6-GST fusion (human, UniProt P31994 43-217)
T1 construct: extracellular domain; also called CD32; not shown: glutathione S transferase (GST)
T1 sequence: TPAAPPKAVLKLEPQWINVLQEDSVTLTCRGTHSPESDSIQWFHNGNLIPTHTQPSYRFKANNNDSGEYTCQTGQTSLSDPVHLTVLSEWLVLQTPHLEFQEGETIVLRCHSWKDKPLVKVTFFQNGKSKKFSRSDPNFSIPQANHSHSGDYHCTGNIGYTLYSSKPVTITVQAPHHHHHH

T2: human FcγRIIA-Arg131 α subunit extracellular domain-His6-GST fusion (human, UniProt P12318 34-217)
T2 construct: extracellular domain; also called FcγRIIA-R131; not shown: glutathione S transferase (GST)
T2 sequence: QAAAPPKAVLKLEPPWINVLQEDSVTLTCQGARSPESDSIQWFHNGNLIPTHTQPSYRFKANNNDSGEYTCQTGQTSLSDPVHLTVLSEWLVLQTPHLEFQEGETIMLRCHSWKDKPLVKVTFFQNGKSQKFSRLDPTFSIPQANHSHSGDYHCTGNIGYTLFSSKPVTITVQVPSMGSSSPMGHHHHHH

T3: human FcγRIIA-R131 α subunit extracellular domain-6His-GST fusion (human, UniProt P12318 34-217)
T3 construct: also called FcγRIIA-Arg131; not shown: glutathione S-transferase (GST)
T3 sequence: T2 sequence

T4: human FcγRIIB α subunit extracellular domain-6His-GST fusion (human, UniProt P31994 43-217)
T4 construct: not shown: glutathione S-transferase (GST)
T4 sequence: T1 sequence

B1: recombinant humanized anti-IgE E27 IgG1 (parent antibody) (antibody)
heavy: not shown
light: DIQLTQSPSSLSASVGDRVTITCRASKPVDGEGDSYLNWYQQKPGKAPKLLIYAASYLESGVPSRFSGSGSGTDFTLTISSLQPEDFATYYCQQSHEDPYTFGQGTKVEIKRTVAAPSVFIFPPSDEQLKSGTASVVCLLNNFYPREAKVQWKVDNALQSGNSQESVTEQDSKDSTYSLSSTLTLSKADYEKHKVYACEVTHQGLSSPVTKSFNRGEC
notes: non-A allotype IgG1 Fc; E27 and all its variants were tested as monomers on FcRn and FcγRI and as hexamers with human IgE (3 E27 : 3 IgE) on FcγRIIA, FcγRIIB and FcγRIIIA; also called wt; E27 wildtype
B2: anti-IgE E27 IgG1 Pro329Ala (antibody)
heavy: not shown
light: B1 light
notes: also called P329A
B3: anti-IgE E27 IgG1 Lys322Ala (antibody)
heavy: not shown
light: B1 light
notes: also called K322A
B4: anti-IgE E27 IgG1 Pro331Ala (antibody)
heavy: not shown
light: B1 light
notes: also called P331A
B5: anti-IgE E27 IgG1 Asp270Asn (antibody)
heavy: not shown
light: B1 light
B6: anti-IgE E27 IgG1 Asp265Asn (antibody)
heavy: not shown
light: B1 light
B7: anti-IgE E27 IgG1 Ser298Asn (antibody)
heavy: not shown
light: B1 light
B8: anti-IgE E27 IgG1 Asp265Glu (antibody)
heavy: not shown
light: B1 light
B9: anti-IgE E27 IgG1 Lys414Ala (antibody)
heavy: not shown
light: B1 light
B10: anti-IgE E27 IgG1 Gln419 changed to Ala (antibody)
heavy: not shown
light: B1 light
notes: named only by its position
B11: anti-IgE E27 IgG1 Glu380Ala (antibody)
heavy: not shown
light: B1 light
B12: anti-IgE E27 IgG1 Asn434Ala (antibody)
heavy: not shown
light: B1 light
B13: E27 IgG1 variant E380(405)A/L309(328)A (antibody)
heavy: not shown
light: B1 light
notes: also called IG2 271
B14: E27 IgG1 variant E380(405)A/N434(465)A/T307(326)A (antibody)
heavy: EVQLVESGGGLVQPGGSLRLSCAVSGYSITSGYSWNWIRQAPGKGLEWVASIKYSGETKYNPSVKGRITISRDDSKNTFYLQMNSLRAEDTAVYYCARGSHYFGHWHFAVWGQGTLVTVSSASTKGPSVFPLAPSSKSTSGGTAALGCLVKDYFPEPVTVSWNSGALTSGVHTFPAVLQSSGLYSLSSVVTVPSSSLGTQTYICNVNHKPSNTKVDKKVEPKSCDKTHTCPPCPAPELLGGPSVFLFPPKPKDTLMISRTPEVTCVVVDVSHEDPEVKFNWYVDGVEVHNAKTKPREEQYNSTYRVVSVLAVLHQDWLNGKEYKCKVSNKALPAPIEKTISKAKGQPREPQVYTLPPSREEMTKNQVSLTCLVKGFYPSDIAVAWESNGQPENNYKTTPPVLDSDGSFFLYSKLTVDKSRWQQGNVFSCSVMHEALHAHYTQKSLSLSPGK
light: B1 light
notes: also called IG2 270
B15: E27 IgG1 variant E380(405)A/N434(465)A (antibody)
heavy: not shown
light: B1 light
notes: also called IG2 269
B16: E27 IgG1 variant H434(465)A/K288(305)A (antibody)
heavy: not shown
light: B1 light
notes: also called IG2 272; Lys288Ala/Asn434Ala
B17: anti-IgE E27 IgG1 Glu380Ala/Asn434Ala (antibody)
heavy: not shown
light: B1 light
B18: anti-IgE E27 IgG1 Thr307Ala/Glu380Ala/Asn434Ala (antibody)
heavy: B14 heavy
light: B1 light

Each binder was assayed against T5, human FcγRIIIA-Phe158 α subunit extracellular domain-His6-GST fusion (human, UniProt P08637 17-208) (assay: immune complex ELISA, E27 background).
T5 construct: extracellular domain; also called FcγRIIIA-F158; CD16; not shown: glutathione S transferase (GST)
T5 sequence (P08637 other isoform, or with tags, fused parts or gaps): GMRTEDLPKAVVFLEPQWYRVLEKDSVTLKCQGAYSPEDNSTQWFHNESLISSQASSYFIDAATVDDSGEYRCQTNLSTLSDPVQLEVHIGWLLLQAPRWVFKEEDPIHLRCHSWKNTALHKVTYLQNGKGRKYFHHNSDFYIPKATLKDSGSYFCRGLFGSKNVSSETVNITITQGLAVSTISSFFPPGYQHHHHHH

| percentage of the wild type | Binder |
| --- | --- |
| 100% | B1 |
| 85% | B2 |
| 90% | B3 |
| 73% | B4 |

The binders below were run against T1, human FcγRIIB α subunit extracellular … (assay: immune complex ELISA, E27 background).

| percentage of the wild type | Binder |
| --- | --- |
| 100% | B1 |
| 101% | B3 |
| 58% | B4 |

What follows are binders tested against T2, human FcγRIIA-Arg131 α subunit … (assay: immune complex ELISA, E27 background).

| percentage of the wild type | Binder |
| --- | --- |
| 100% | B1 |
| 111% | B2 |
| 109% | B3 |
| 86% | B4 |

Each binder was assayed against T5, human FcγRIIIA-Phe158 α subunit … (assay: hexamer ELISA).

| binding result | Binder |
| --- | --- |
| no binding | B5 |
| no binding | B6 |
| no binding | B7 |
| no binding | B8 |

What follows are binders tested against T1, human FcγRIIB α subunit extracellular … (assay: hexamer ELISA).

| binding result | reduction in binding against native IgG1 | Binder |
| --- | --- | --- |
| no binding | – | B5 |
| no binding | – | B6 |
| – | 40% | B9 |
| no binding | – | B7 |
| – | 40% | B10 |
| no binding | – | B8 |

What follows are binders tested against T2, human FcγRIIA-Arg131 α subunit … (assay: hexamer ELISA).

| binding result | reduction in binding against native IgG1 | Binder |
| --- | --- | --- |
| no binding | – | B5 |
| no binding | – | B6 |
| – | 40% | B9 |
| no binding | – | B7 |
| – | 30% | B10 |
| no binding | – | B8 |

What follows are binders tested against T6, human neonatal Fc receptor (FcRn), biotinylated (human, UniProt P55899 24-297; P61769 21-119, biotinylated (biotin-X-NHS)) (assay: FcRn ELISA, pH 6.0;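 for ratio to native IgG1: Streptavidin-captured FcRn plates, IgG variants titrated 2 h at pH 6.0, peroxidase anti-human IgG read at 450 nm, variant over standard concentration at the standard curve mid-point absorbance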).
T6 construct: captured on streptavidin plates
Method: (§1) FcRn Binding ELISA: For measuring FcRn binding activity of IgG variants, ELISA plates were coated with 2 µg/ml streptavidin (Zymed, South San Francisco) in 50 mM carbonate buffer, pH 9.6, at 4° C. overnight and blocked with PBS-0.5% BSA, pH 7.2 at room temperature for one hour. Biotinylated FcRn (prepared using biotin-X-NHS from Research Organics, Cleveland, Ohio and used at 1–2 µg/ml) in PBS-0.5% BSA, 0.05% polysorbate 20, pH 7.2, was added to the plate and incubated for one hour. Two fold serial dilutions of IgG standard (1.6–100 ng/ml) or variants in PBS-0.5% BSA, 0.05% polysorbate 20, pH 6.0, were added to the plate and incubated for two hours. Bound IgG was detected using peroxidase labeled goat F(ab')_2 anti-human IgG F(ab')_2 in the above pH 6.0 buffer (Jackson ImmunoResearch, West Grove, Pa.) followed by 3,3',5,5'-tetramethyl benzidine (Kirgaard & Perry Laboratories) as the substrate. Plates were washed between steps with PBS-0.05% TWEEN 20® at either pH 7.2 or 6.0. Absorbance was read at 450 nm on a Vmax plate reader (Molecular Devices, Menlo Park, Calif.). Titration curves were fit with a four-parameter nonlinear regression curve-fitting program (KaleidaGraph, Synergy software, Reading, Pa.). Concentrations of IgG variants corresponding to the mid-point absorbance of the titration curve of the standard were calculated and then divided by the concentration of the standard corresponding to the mid-point absorbance of the standard titration curve.

| ratio to native IgG1 | Binder |
| --- | --- |
| 0.8 ratio | B2 |
| 0.98 ratio | B3 |
| 1.02 ratio | B9 |
| 0.85 ratio | B4 |
| 2.19 ratio | B11 |
| 3.46 ratio | B12 |

Target: T5, human FcγRIIIA-Phe158 α subunit …
Assay: hexamer ELISA
Remark: another data set of the same source

| ratio to native IgG1 | Binder |
| --- | --- |
| 0.21 ratio | B2 |
| 0.62 ratio | B3 |
| 0.82 ratio | B9 |
| 1.08 ratio | B4 |
| 0.92 ratio | B11 |
| 0.77 ratio | B12 |

Target: T1, human FcγRIIB α subunit extracellular …
Assay: hexamer ELISA
Remark: another data set of the same source

| ratio to native IgG1 | Binder |
| --- | --- |
| 1.28 ratio | B3 |
| 0.58 ratio | B9 |
| 1.34 ratio | B4 |
| 1.07 ratio | B11 |
| 0.97 ratio | B12 |

Target: T2, human FcγRIIA-Arg131 α subunit …
Assay: hexamer ELISA
Remark: another data set of the same source

| ratio to native IgG1 | Binder |
| --- | --- |
| 0.08 ratio | B2 |
| 1.17 ratio | B3 |
| 0.64 ratio | B9 |
| 1.29 ratio | B4 |
| 1.18 ratio | B11 |
| 0.96 ratio | B12 |

Each binder was assayed against T7, human FcRn, biotinylated (human, UniProt P55899 24-297; P61769 21-119, biotinylated (biotin-X-NHS)) (assay: ELISA, biotin-FcRn on streptavidin, pH 6.0).
T7 construct: Captured on streptavidin plates; IgG added at pH 6.0; also called neonatal Fc receptor
Method: as §1

| ratio to native IgG1 | Binder |
| --- | --- |
| 0.9 | B13 |
| 11.8 | B14 |
| 8 | B15 |
| 2.9 | B16 |

The binders below were run against T8, human FcγRIIIA-F158 α subunit extracellular domain-6His-GST fusion (human, UniProt P08637 17-208) (assay: ELISA, IgG:IgE hexamers on receptor-GST).
T8 construct: also called FcγRIIIA-Phe158; not shown: glutathione S-transferase (GST)
T8 sequence (P08637 other isoform, or with tags, fused parts or gaps, form in doubt): as the sequence (P08637 other isoform, or with tags, fused parts or gaps) above

| ratio to native IgG1 | Binder |
| --- | --- |
| 0.92 | B13 |
| 0.96 | B14 |
| 1.02 | B15 |
| 0.88 | B16 |

The binders below were run against T3, human FcγRIIA-R131 α subunit … (assay: ELISA, IgG:IgE hexamers on receptor-GST).

| ratio to native IgG1 | Binder |
| --- | --- |
| 0.98 | B13 |
| 0.99 | B14 |
| 1.02 | B15 |
| 0.94 | B16 |

Each binder was assayed against T4, human FcγRIIB α subunit extracellular … (assay: ELISA, IgG:IgE hexamers on receptor-GST).

| ratio to native IgG1 | Binder |
| --- | --- |
| 1.04 | B13 |
| 0.99 | B14 |
| 1.05 | B15 |
| 0.96 | B16 |

Target: T6, human neonatal Fc receptor (FcRn), …
Assay: FcRn ELISA, pH 6.0
Remark: another data set of the same source
Method: as §1

| fold better binding than native IgG1 | Binder |
| --- | --- |
| > 8 fold | B17 |
| 13 fold | B18 |
| 2 fold | B11 |
| 3.5 fold | B12 |

The binders below were run against T6, human neonatal Fc receptor (FcRn), … (assay: FcRn ELISA (E27 background by paragraph 363)).

| binding result | Binder |
| --- | --- |
| binds | B1 |

These binders were tested against T9, human FcγRIA α subunit extracellular domain-His6-GST fusion (human, UniProt P12314 16-292) (assay: FcγRI ELISA, E27 background).
T9 construct: extracellular domain; also called GST-FcγRIA; CD64; not shown: glutathione S transferase (GST)
T9 sequence (P12314 other isoform, or with tags, fused parts or gaps): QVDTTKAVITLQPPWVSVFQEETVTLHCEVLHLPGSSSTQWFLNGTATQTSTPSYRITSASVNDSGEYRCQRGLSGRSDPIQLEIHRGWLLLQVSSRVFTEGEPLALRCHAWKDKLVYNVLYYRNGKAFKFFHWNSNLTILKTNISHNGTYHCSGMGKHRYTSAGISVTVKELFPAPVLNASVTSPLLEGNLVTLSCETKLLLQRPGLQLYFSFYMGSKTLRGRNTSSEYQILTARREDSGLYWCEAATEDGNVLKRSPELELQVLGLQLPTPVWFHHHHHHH

| percentage of the wild type | Binder |
| --- | --- |
| 100% | B1 |
| 104% | B2 |
| 90% | B3 |
| 74% | B4 |

Each binder was assayed against T9, human FcγRIA α subunit extracellular … (assay: FcγRI ELISA and THP-1 cells, averaged).

| ratio to native IgG1 | Binder |
| --- | --- |
| 0.48 ratio | B2 |
| 0.94 ratio | B3 |
| 1 ratio | B9 |
| 1.01 ratio | B4 |
| 1.04 ratio | B11 |
| 1 ratio | B12 |
